Test results as given in patent US20140087995A1 (published 2014).
Numbered stars: 1 amine (or outer) side, 2 acyl side, 3 side chain; on linkers, the order of the positions; unused ones are H or OH. Bridge positions count the residues as written; N and C are the ends. Side chains are listed from the residue outwards. Ends that are not written are not given here. * marks the point of attachment. C20 diacid = O=C(O)CCCCCCCCCCCCCCCCCCC(=O)*; γGlu = O=C(O)[C@H](CCC(=O)[*:2])N[*:1]; AEEA = NCCOCCOCC(=O)O

T1: human calcitonin receptor (human, UniProt P30988 25-474)
T1 construct: whole, on cells; also called hCTR; hCT
T1 sequence (looked up): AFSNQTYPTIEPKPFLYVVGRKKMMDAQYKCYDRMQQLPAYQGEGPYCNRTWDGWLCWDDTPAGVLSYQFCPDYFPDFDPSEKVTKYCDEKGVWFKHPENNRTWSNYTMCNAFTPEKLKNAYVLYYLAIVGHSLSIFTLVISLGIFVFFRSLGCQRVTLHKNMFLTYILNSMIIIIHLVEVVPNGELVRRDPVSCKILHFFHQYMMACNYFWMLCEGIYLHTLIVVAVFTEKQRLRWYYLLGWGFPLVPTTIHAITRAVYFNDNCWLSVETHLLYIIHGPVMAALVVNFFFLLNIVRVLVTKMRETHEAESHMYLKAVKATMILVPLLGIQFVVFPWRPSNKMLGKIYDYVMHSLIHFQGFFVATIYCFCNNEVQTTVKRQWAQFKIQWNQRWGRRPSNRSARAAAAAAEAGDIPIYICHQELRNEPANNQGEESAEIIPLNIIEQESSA


Assays:
[1] = target: T1, human calcitonin receptor; test: SPA radioligand competition (125I-calcitonin), membranes of BHK cells with human calcitonin receptor
Outline: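 BHK hCTR membranes 35 ng/μL + SPA beads 0.05 mg/well; buffer 50 mM Hepes pH 7.4, 1 mM CaCl2, 5 mM MgCl₂, 0.1% OA, 0.02% Tween20. 120 min, 25° C., shaking. Scintillation count; IC50 by one-site binding competition.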

[2] = target: T1, human calcitonin receptor; test: ratio of IC50 at human calcitonin receptor to IC50 at human amylin receptor (SPA competition assays)
Outline: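 Competition binding by SPA uses membrane preparations (35 ng/μL final) in pH 7.4 Hepes buffer with 1 mM CaCl2 and 5 mM MgCl₂. Incubation lasts 120 min at 25° C, and IC₅₀ comes from one-site fitting.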

IC50 [1] [nM]	Ratio hCT/hAmylin binding [2]	Binder
17.8	101	K([γGlu-C20 diacid])CNTATCATQRLAAFLRHSSPNFGAIPSSTNVGHNTY-NH2 (disulfide 2-7; N-terminus assumed; SMILES CC[C@H](C)[C@H](NC(=O)[C@H](C)NC(=O)CNC(=O)[C@H](Cc1ccccc1)NC(=O)[C@H](CC(N)=O)NC(=O)[C@@H]1CCCN1C(=O)[C@H](CO)NC(=O)[C@H](CO)NC(=O)[C@H](Cc1c[nH]cn1)NC(=O)[C@H](CCCNC(=N)N)NC(=O)[C@H](CC(C)C)NC(=O)[C@H](Cc1ccccc1)NC(=O)[C@H](C)NC(=O)[C@H](C)NC(=O)[C@H](CC(C)C)NC(=O)[C@H](CCCNC(=N)N)NC(=O)[C@H](CCC(N)=O)NC(=O)[C@@H](NC(=O)[C@H](C)NC(=O)[C@@H]1CSSC[C@H](NC(=O)[C@@H](N)CCCCNC(=O)CC[C@H](NC(=O)CCCCCCCCCCCCCCCCCCC(=O)O)C(=O)O)C(=O)N[C@@H](CC(N)=O)C(=O)N[C@@H]([C@@H](C)O)C(=O)N[C@@H](C)C(=O)N[C@@H]([C@@H](C)O)C(=O)N1)[C@@H](C)O)C(=O)N1CCC[C@H]1C(=O)N[C@@H](CO)C(=O)N[C@@H](CO)C(=O)N[C@H](C(=O)N[C@@H](CC(N)=O)C(=O)N[C@H](C(=O)NCC(=O)N[C@@H](Cc1c[nH]cn1)C(=O)N[C@@H](CC(N)=O)C(=O)N[C@H](C(=O)N[C@@H](Cc1ccc(O)cc1)C(N)=O)[C@@H](C)O)C(C)C)[C@@H](C)O, also called compound 93)
5.38	51.7	K([AEEA-γGlu-C20 diacid])CNTATCATQRLASFLRHSSPNFGAIPSSTPVGSNTY-NH2 (disulfide 2-7; N-terminus assumed; SMILES CC[C@H](C)[C@H](NC(=O)[C@H](C)NC(=O)CNC(=O)[C@H](Cc1ccccc1)NC(=O)[C@H](CC(N)=O)NC(=O)[C@@H]1CCCN1C(=O)[C@H](CO)NC(=O)[C@H](CO)NC(=O)[C@H](Cc1c[nH]cn1)NC(=O)[C@H](CCCNC(=N)N)NC(=O)[C@H](CC(C)C)NC(=O)[C@H](Cc1ccccc1)NC(=O)[C@H](CO)NC(=O)[C@H](C)NC(=O)[C@H](CC(C)C)NC(=O)[C@H](CCCNC(=N)N)NC(=O)[C@H](CCC(N)=O)NC(=O)[C@@H](NC(=O)[C@H](C)NC(=O)[C@@H]1CSSC[C@H](NC(=O)[C@@H](N)CCCCNC(=O)COCCOCCNC(=O)CC[C@H](NC(=O)CCCCCCCCCCCCCCCCCCC(=O)O)C(=O)O)C(=O)N[C@@H](CC(N)=O)C(=O)N[C@@H]([C@@H](C)O)C(=O)N[C@@H](C)C(=O)N[C@@H]([C@@H](C)O)C(=O)N1)[C@@H](C)O)C(=O)N1CCC[C@H]1C(=O)N[C@@H](CO)C(=O)N[C@@H](CO)C(=O)N[C@H](C(=O)N1CCC[C@H]1C(=O)N[C@H](C(=O)NCC(=O)N[C@@H](CO)C(=O)N[C@@H](CC(N)=O)C(=O)N[C@H](C(=O)N[C@@H](Cc1ccc(O)cc1)C(N)=O)[C@@H](C)O)C(C)C)[C@@H](C)O, also called compound 73)
60.9	91.4	K([AEEA-γGlu-C20 diacid])CNTATCATQRLATFLRHSSPNFGAIPSSTPVGSNTY-NH2 (disulfide 2-7; N-terminus assumed; SMILES CC[C@H](C)[C@H](NC(=O)[C@H](C)NC(=O)CNC(=O)[C@H](Cc1ccccc1)NC(=O)[C@H](CC(N)=O)NC(=O)[C@@H]1CCCN1C(=O)[C@H](CO)NC(=O)[C@H](CO)NC(=O)[C@H](Cc1c[nH]cn1)NC(=O)[C@H](CCCNC(=N)N)NC(=O)[C@H](CC(C)C)NC(=O)[C@H](Cc1ccccc1)NC(=O)[C@@H](NC(=O)[C@H](C)NC(=O)[C@H](CC(C)C)NC(=O)[C@H](CCCNC(=N)N)NC(=O)[C@H](CCC(N)=O)NC(=O)[C@@H](NC(=O)[C@H](C)NC(=O)[C@@H]1CSSC[C@H](NC(=O)[C@@H](N)CCCCNC(=O)COCCOCCNC(=O)CC[C@H](NC(=O)CCCCCCCCCCCCCCCCCCC(=O)O)C(=O)O)C(=O)N[C@@H](CC(N)=O)C(=O)N[C@@H]([C@@H](C)O)C(=O)N[C@@H](C)C(=O)N[C@@H]([C@@H](C)O)C(=O)N1)[C@@H](C)O)[C@@H](C)O)C(=O)N1CCC[C@H]1C(=O)N[C@@H](CO)C(=O)N[C@@H](CO)C(=O)N[C@H](C(=O)N1CCC[C@H]1C(=O)N[C@H](C(=O)NCC(=O)N[C@@H](CO)C(=O)N[C@@H](CC(N)=O)C(=O)N[C@H](C(=O)N[C@@H](Cc1ccc(O)cc1)C(N)=O)[C@@H](C)O)C(C)C)[C@@H](C)O, also called compound 75)

Second part, the binder before the results:

Binder	IC50 [1] [nM]	Ratio hCT/hAmylin binding [2]
K([AEEA-γGlu-C20 diacid])CNTATCATQRLAHFLRHSSPNFGAIPSSTNVGHNTY-NH2 (disulfide 2-7; N-terminus assumed; SMILES CC[C@H](C)[C@H](NC(=O)[C@H](C)NC(=O)CNC(=O)[C@H](Cc1ccccc1)NC(=O)[C@H](CC(N)=O)NC(=O)[C@@H]1CCCN1C(=O)[C@H](CO)NC(=O)[C@H](CO)NC(=O)[C@H](Cc1c[nH]cn1)NC(=O)[C@H](CCCNC(=N)N)NC(=O)[C@H](CC(C)C)NC(=O)[C@H](Cc1ccccc1)NC(=O)[C@H](Cc1c[nH]cn1)NC(=O)[C@H](C)NC(=O)[C@H](CC(C)C)NC(=O)[C@H](CCCNC(=N)N)NC(=O)[C@H](CCC(N)=O)NC(=O)[C@@H](NC(=O)[C@H](C)NC(=O)[C@@H]1CSSC[C@H](NC(=O)[C@@H](N)CCCCNC(=O)COCCOCCNC(=O)CC[C@H](NC(=O)CCCCCCCCCCCCCCCCCCC(=O)O)C(=O)O)C(=O)N[C@@H](CC(N)=O)C(=O)N[C@@H]([C@@H](C)O)C(=O)N[C@@H](C)C(=O)N[C@@H]([C@@H](C)O)C(=O)N1)[C@@H](C)O)C(=O)N1CCC[C@H]1C(=O)N[C@@H](CO)C(=O)N[C@@H](CO)C(=O)N[C@H](C(=O)N[C@@H](CC(N)=O)C(=O)N[C@H](C(=O)NCC(=O)N[C@@H](Cc1c[nH]cn1)C(=O)N[C@@H](CC(N)=O)C(=O)N[C@H](C(=O)N[C@@H](Cc1ccc(O)cc1)C(N)=O)[C@@H](C)O)C(C)C)[C@@H](C)O, also called compound 80)	19.8	68.1
K([AEEA-γGlu-C20 diacid])CNTATCATQRLAHFLRHSSPNFGAIPSSTNVGSNTY-NH2 (disulfide 2-7; N-terminus assumed; SMILES CC[C@H](C)[C@H](NC(=O)[C@H](C)NC(=O)CNC(=O)[C@H](Cc1ccccc1)NC(=O)[C@H](CC(N)=O)NC(=O)[C@@H]1CCCN1C(=O)[C@H](CO)NC(=O)[C@H](CO)NC(=O)[C@H](Cc1c[nH]cn1)NC(=O)[C@H](CCCNC(=N)N)NC(=O)[C@H](CC(C)C)NC(=O)[C@H](Cc1ccccc1)NC(=O)[C@H](Cc1c[nH]cn1)NC(=O)[C@H](C)NC(=O)[C@H](CC(C)C)NC(=O)[C@H](CCCNC(=N)N)NC(=O)[C@H](CCC(N)=O)NC(=O)[C@@H](NC(=O)[C@H](C)NC(=O)[C@@H]1CSSC[C@H](NC(=O)[C@@H](N)CCCCNC(=O)COCCOCCNC(=O)CC[C@H](NC(=O)CCCCCCCCCCCCCCCCCCC(=O)O)C(=O)O)C(=O)N[C@@H](CC(N)=O)C(=O)N[C@@H]([C@@H](C)O)C(=O)N[C@@H](C)C(=O)N[C@@H]([C@@H](C)O)C(=O)N1)[C@@H](C)O)C(=O)N1CCC[C@H]1C(=O)N[C@@H](CO)C(=O)N[C@@H](CO)C(=O)N[C@H](C(=O)N[C@@H](CC(N)=O)C(=O)N[C@H](C(=O)NCC(=O)N[C@@H](CO)C(=O)N[C@@H](CC(N)=O)C(=O)N[C@H](C(=O)N[C@@H](Cc1ccc(O)cc1)C(N)=O)[C@@H](C)O)C(C)C)[C@@H](C)O, also called compound 69)	8.68	65.3
K([AEEA-γGlu-C20 diacid])CNTATCATQRLAKFLRHSSPNFGAIPSSTPVGSNTY-NH2 (disulfide 2-7; N-terminus assumed; SMILES CC[C@H](C)[C@H](NC(=O)[C@H](C)NC(=O)CNC(=O)[C@H](Cc1ccccc1)NC(=O)[C@H](CC(N)=O)NC(=O)[C@@H]1CCCN1C(=O)[C@H](CO)NC(=O)[C@H](CO)NC(=O)[C@H](Cc1c[nH]cn1)NC(=O)[C@H](CCCNC(=N)N)NC(=O)[C@H](CC(C)C)NC(=O)[C@H](Cc1ccccc1)NC(=O)[C@H](CCCCN)NC(=O)[C@H](C)NC(=O)[C@H](CC(C)C)NC(=O)[C@H](CCCNC(=N)N)NC(=O)[C@H](CCC(N)=O)NC(=O)[C@@H](NC(=O)[C@H](C)NC(=O)[C@@H]1CSSC[C@H](NC(=O)[C@@H](N)CCCCNC(=O)COCCOCCNC(=O)CC[C@H](NC(=O)CCCCCCCCCCCCCCCCCCC(=O)O)C(=O)O)C(=O)N[C@@H](CC(N)=O)C(=O)N[C@@H]([C@@H](C)O)C(=O)N[C@@H](C)C(=O)N[C@@H]([C@@H](C)O)C(=O)N1)[C@@H](C)O)C(=O)N1CCC[C@H]1C(=O)N[C@@H](CO)C(=O)N[C@@H](CO)C(=O)N[C@H](C(=O)N1CCC[C@H]1C(=O)N[C@H](C(=O)NCC(=O)N[C@@H](CO)C(=O)N[C@@H](CC(N)=O)C(=O)N[C@H](C(=O)N[C@@H](Cc1ccc(O)cc1)C(N)=O)[C@@H](C)O)C(C)C)[C@@H](C)O, also called compound 74)	79.9	101
